Data reported in patent US20110171235A1 (University of California, published 2011).
Changes are numbered by the printed parent chain. Where two headings read alike, the source gives them in different places.

Assays:
[1] = target: T1, botulinum neurotoxin type A (BoNT/A), purified holotoxin (Clostridium botulinum, UniProt P0DPI0 2-1296)
[2] = target: T1, botulinum neurotoxin type A (BoNT/A), …; assay: yeast displayed scFv, flow cytometry
[3] = target: T1, botulinum neurotoxin type A (BoNT/A), …; assay: yeast display
[4] = target: T1, botulinum neurotoxin type A (BoNT/A), …; assay: Kinexa
[5] = target: T1, botulinum neurotoxin type A (BoNT/A), …; assay: cell-based or functional assay
[6] = target: T1, botulinum neurotoxin type A (BoNT/A), …; remark: listed apart in the source
[7] = target: T1, botulinum neurotoxin type A (BoNT/A), …; remark: listed apart in the source

B1: AR4 scFv (scFv, V domains shown)
VH: QVQLQESGGGLVQPGGSLRLSCAASGFTFEEHYMYWVRQAPGKGLEWVATISDGGSYTYYPDSVEGRFTTSRDNSKNTLYLQMNSLRAEDTAIYYCSRYRYDDAMDYWGQGTLVTVSS
VL: EIVLTQSPATLSLSPGERATISCRASESVDSYGHSFMQWYQQKPGQAPRLLIYRASNLEPGIPARFSGSGSGTDFTLTISSLEPEDFAVYYCQQGNEVPFTFGQGTKVEIK
Kd [1]: 0.0226 nM | Kd [2]: 0.023 nM | fold higher affinity than HuC25 scFv [3]: 37 fold

B2: HuC25 scFv (scFv, V domains shown)
VH: B1 VH with E30S, E31D, H32Y, E65K, T70I, I93M
VL: B1 VL with G95S, V98D
Kd [2]: 0.844 nM

B3: AR1 scFv (scFv, V domains shown)
VH: B1 VH with E30S, E31D, H32Y, E65K, T70I
VL: B1 VL
Kd [2]: 0.169 nM | fold improvement of KD against HuC25 [2]: 5 fold

B4: AR2 scFv (scFv, V domains shown)
VH: B1 VH with E30S, E31D, E65K
VL: B1 VL
Kd [2]: 0.0614 nM | fold increase against parental AR1 [2]: 2.8 fold

B5: AR3 scFv (scFv, V domains shown)
VH: B1 VH with E30G
VL: B1 VL
Kd [2]: 0.019 nM

B6: AR4 IgG (antibody, V domains shown)
VH: B1 VH
VL: EIVLTQSPATLSLSPGERATISCRASESVDSYGHSFMQWYQQKPGQAPRLLIYRASNLEPGIPARFSGSGSGTDFTLTISSLEPEDFAVYYCQQGNEVPFTFGQGTKVEIKR
fold higher affinity than HuC25 IgG [4]: 34 fold

B7: 3D12 scFv (scFv, V domains shown)
VH: QVQLVQSGGGVVHPGRSLKLSCAGSGFTFSDYDMHWVRQAPGKGLEWVAVMWFDGTEKYSAESVKGRFTISRDNSKNTLFLQMNSLRADDTAVYYCAREPDWLLWGDRGALDVWGQGTTVTVSS
VL: DIVMTQSPSTLSASVGDRVTITCRASQSISSWLAWYQQKPGKAPKLLMYEASSLESGVPSRFSGSGSGTEFTLTISSLQPDDFAAYYCQHYNTYPYTFGQGTKLEIK
prolongation of time to neuroparalysis [5]: 1.5 fold | Kd [6]: 0.943 nM

B8: RAZ1 IgG (antibody, V domains shown)
VH: B7 VH
VL: DIVMTQSPSTLSASVGDRVTITCWASQSISSRLAWYQQKPGKAPKLLMYEATSLGSGVPSRFSGSGSGTEFTLTISSLQPDDFAAYYCQHYDTYPYTFGQGTKLEIKR
fold higher affinity than 3D12 IgG [7]: 35 fold

B9: C25 scFv (scFv)
scFv: QVQLQESGGGLVKPGGSLKLSCAASGFTFSDYYMYWVRQTPEKRLEWVATISDGGSYTYYPDSVKGRFTISRDNAKNNLYLQMSSLKSEDTAMYYCSRYRYDDAMDYWGQGTTVTVSSGGGGSGGGGSGGGGSDIELTQSPASLAVSLGQRATISCRASESVDSYGHSFMQWYQQKPGQPPKLLIYRASNLEPGIPARFSGSGSGTDFTLTINPVEADDVATYYCQQSNEDPFTFGSGTKLEIKR
prolongation of time to neuroparalysis [5]: 2.7 fold
